Columns and labels:
CRP = biological target: T1, CRP (Homo sapiens, UniProt P02741); test: CRP activity to bind to immobilized PC-BSA, PC-antibody method (C); assay type: binding; conditions: Eu3+-labeled anti-CRP antibody, FIG. 6
T1 construct: purchased Oriental Yeast Co., Ltd. (Japan); host or cells: Escherichia coli
T1 sequence (P02741 19-224): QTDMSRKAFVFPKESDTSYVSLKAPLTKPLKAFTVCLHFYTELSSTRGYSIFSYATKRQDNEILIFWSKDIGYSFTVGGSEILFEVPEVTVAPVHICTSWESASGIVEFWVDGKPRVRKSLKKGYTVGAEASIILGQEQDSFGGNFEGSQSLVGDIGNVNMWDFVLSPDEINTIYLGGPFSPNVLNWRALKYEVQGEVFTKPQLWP
Protocol: Because it was difficult to immobilize PC-BSA without modification of the microtiter plate, PC-BSA was immobilized on the wells of a microtiter plate by using the PVLA method [Suzuki, N., et al., (1997) Anal. Biochem. 247, 4-12-416]. PVLA (2 mg) was suspended in 1 ml of water by ultrasonication; the resulting PVLA suspension of 40 μl was added to each well, for overnight incubation at 4° C. 1 mM NaIO4 solution was added in 50 μl-portions to each well, and the plate was incubated in darkness at ambient temperature for one hour. After the plate was washed, the PC-BSA solution (100 ng protein in 40 μl of water) was added to each well, followed by mixing with 5 μl of 2% (v/v) borane-pyridine complex, for incubation at 37° C. for 2 hours. The wells were blocked through incubation with 1M glycylglycine (40 μl) at 37° C. for 4 hours, and then followed by incubation with 200 μl of TBS containing 2% (w/v) BSA at 4° C. overnight. After the added solutions were removed at the individual stages of the following method, the wells were washed six times with 200 μl of TBS.
So as to immobilize PC58- or PC7-BSA solution (40 μl containing […] and PC of about 120 pmol or 15 pmol) in water, the solution was left to stand in the PVLA-coated well. After the wells were coated with PC-BSA and blocked with BSA, they were then washed six times with TBS (200 μl). […]

[1] = biological target: PC58-BSA (conjugate with 58 phosphorylcholine molecules on average bound per one bovine serum albumin molecule) (bovine) (UniProt P02769); test: quantitative precipitation at saturation, 20 µg PC58-BSA with 50 µg CRP
Chain of PC58-BSA (conjugate with 58 phosphorylcholine molecules on average bound per one bovine serum albumin molecule) (bovine) (P02769 25-607 limits assumed, form in doubt): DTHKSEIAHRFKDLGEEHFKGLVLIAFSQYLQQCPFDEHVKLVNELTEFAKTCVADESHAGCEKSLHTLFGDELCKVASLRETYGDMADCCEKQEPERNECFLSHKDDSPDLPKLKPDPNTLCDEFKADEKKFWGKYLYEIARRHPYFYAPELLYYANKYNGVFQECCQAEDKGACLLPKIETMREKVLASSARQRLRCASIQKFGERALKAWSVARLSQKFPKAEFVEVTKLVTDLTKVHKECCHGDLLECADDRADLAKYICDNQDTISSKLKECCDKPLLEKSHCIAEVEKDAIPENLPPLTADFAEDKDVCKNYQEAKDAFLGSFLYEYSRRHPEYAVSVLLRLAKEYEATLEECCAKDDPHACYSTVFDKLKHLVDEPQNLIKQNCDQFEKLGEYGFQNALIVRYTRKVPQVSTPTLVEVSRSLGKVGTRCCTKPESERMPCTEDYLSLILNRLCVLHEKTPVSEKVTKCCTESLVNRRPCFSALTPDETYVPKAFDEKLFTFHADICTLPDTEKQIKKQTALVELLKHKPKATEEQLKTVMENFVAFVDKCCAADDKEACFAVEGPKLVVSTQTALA

## PC58-BSA: conjugate where 58 PC molecules on average are bound per one BSA molecule
CRP
  anti-CRP antibody (IgG) bound per PC-BSA-coated well: 5.6 fmol per well

## PC7-BSA: PC conjugate of bovine serum albumin (BSA) produced by the previously reported method
CRP
  anti-CRP antibody (IgG) bound per PC-BSA-coated well: 2.2 fmol per well

B1: Recombinant human C-reactive protein (rhCRP) expressed in Escherichia coli (protein, UniProt P02741 19-224, looked up)
chain: QTDMSRKAFVFPKESDTSYVSLKAPLTKPLKAFTVCLHFYTELSSTRGYSIFSYATKRQDNEILIFWSKDIGYSFTVGGSEILFEVPEVTVAPVHICTSWESASGIVEFWVDGKPRVRKSLKKGYTVGAEASIILGQEQDSFGGNFEGSQSLVGDIGNVNMWDFVLSPDEINTIYLGGPFSPNVLNWRALKYEVQGEVFTKPQLWP
[1]
  amount of CRP in the precipitate: 0.37 nmol
  amount of PC58-BSA in the precipitate: 0.17 nmol
  ratio PC58-BSA:CRP in the precipitate (mol CRP (pentamer) per mol PC58-BSA): 2.2

Reference: patent US20050153377A1 (ORIENTAL YEAST CO., LTD., priority 1999, published 2005)
